According to EP0621339B1 (TAKARA SHUZO CO. LTD., dated 2001):

Target: HA molecule (haemagglutinin) of A/Okuda/57 (H2N2) (influenza A virus, H2N2 subtype, strain A/Okuda/57)
Assay: cell-based or functional assay

monoclonal antibody C179
HI (hemagglutination inhibition titer) (fold dilution of the ascites fluid): < 32
